{"source": "patent US20220249628", "molecular_target": "full length recombinant von Willebrand factor, P04275"}
{"protein": "recombinant ADAMTS13 (A Disintegrin And Metalloproteinase with Thrombospondin type 1 motif, member-13) (protein) AAGGILHLELLVAVGPDVFQAHQEDTERYVLTNLNIGAELLRDPSLGAQFRVHLVKMVILTEPEGAPNITANLTSSLLSVCGWSQTINPEDDTDPGHADLVLYITRFDLELPDGNRQVRGVTQLGGACSPTWSCLITEDTGFDLGVTIAHEIGHSFGLEHDGAPGSGCGPSGHVMASDGAAPRAGLAWSPCSRRQLLSLLSAGRARCVWDPPRPQPGSAGHPPDAQPGLYYSANEQCRVAFGPKAVACTFAREHLDMCQALSCHTDPLDQSSCSRLLVPLLDGTECGVEKWCSKGRCRSLVELTPIAAVHGRWSSWGPRSPCSRSCGGGVVTRRRQCNNPRPAFGGRACVGADLQAEMCNTQACEKTQLEFMSQQCARTDGQPLRSSPGGASFYHWGAAVPHSQGDALCRHMCRAIGESFIMKRGDSFLDGTRCMPSGPREDGTLSLCVSGSCRTFGCDGRMDSQQVWDRCQVCGGDNSTCSPRKGSFTAGRAREYVTFLTVTPNLTSVYIANHRPLFTHLAVRIGGRYVVAGKMSISPNTTYPSLLEDGRVEYRVALTEDRLPRLEEIRIWGPLQEDADIQVYRRYGEEYGNLTRPDITFTYFQPKPRQAWVWAAVRGPCSVSCGAGLRWVNYSCLDQARKELVETVQCQGSQQPPAWPEACVLEPCPPYWAVGDFGPCSASCGGGLRERPVRCVEAQGSLLKTLPPARCRAGAQQPAVALETCNPQPCPARWEVSEPSSCTSAGGAGLALENETCVPGADGLEAPVTEGPGSVDEKLPAPEPCVGMSCPPGWGHLDATSAGEKAPSPWGSIRTGAQAAHVWTPAAGSCSVSCGRGLMELRFLCMDSALRVPVQEELCGLASKPGSRREVCQAVPCPARWQYKLAACSVSCGRGVVRRILYCARAHGEDDGEEILLDTQCQGLPRPEPQEACSLEPCPPRWKVMSLGPCSASCGLGTARRSVACVQLDQGQDVEVDEAACAALVRPEASVPCLIADCTYRWHVGTWMECSVSCGDGIQRRRDTCLGPQAQAPVPADFCQHLPKPVTVRGCWAGPCVGQGTPSLVPHEEAAAPGRTTATPAGASLEWSQARGLLFSPAPQPRRLLPGPQENSVQSSACGRQHLEPTGTIDMRGPGQADCAVAIGRPLGEVVTLRVLESSLNCSAGDMLLLWGRLTWRKMCRKLLDMTFSSKTNTLVVRQRCGRPGGGVLLRYGSQLAPETFYRECDMQLFGPWGEIVSPSLSPATSNAGGCRLFINVAPHARIAIHALATNMGAGTEGANASYILIRDTHSLRTTAFHGQQVLYWESESSQAEMEFSEGFLKAQASLRGQYWTLQSWVPEMQDPQSWKGKEGT", "values": [{"measurement": "176 kDa dimeric VWF cleavage fragment (VWF immunoblot, vortex-based assay, no hemoglobin)", "result": "Control reactions with 0.25 U/mL, 0.5 U/mL, and 1 U/mL rADAMTS13 in absence of hemoglobin showed a dose-dependent increase of the 176 kDa dimeric VWF cleavage fragment"}, {"measurement": "ADAMTS13-mediated VWF cleavage in the presence of hemoglobin (176 kDa fragment, densitometry)", "result": "rADAMTS13 has a dose-dependent potency to overcome the inhibitory effect of hemoglobin on VWF cleavage"}, {"measurement": "cleavage of rVWF after pre-incubation of hemoglobin and rVWF (176 kDa fragment, densitometry)", "result": "rADAMTS13 supplemented after a pre-incubation time of hemoglobin and rVWF was capable to cleave VWF"}]}
